{
  "source": "FireProtDB (doi:10.1021/bi027116n)",
  "details": "Spinacia oleracea, reversible: no; for denaturant midpoint (higher = more stable): 20 °C, GdnHCl; for Tm: Thermal",
  "note": "Where “and” joins values, the source holds several entries; their conditions need not be identical. Equal values may be shown once.",
  "data": [
    {"substance": "Ferredoxin-1, chloroplastic wild type, P00221", "values": [
      {"measurement": "denaturant midpoint (higher = more stable)", "setting": "pH 7, Absorbance, phosphate", "result": "2.1 M and 1.7 M and 1.5 M"},
      {"measurement": "denaturant midpoint (higher = more stable)", "setting": "pH 7, CD, phosphate", "result": "2.1 M and 1.6 M"},
      {"measurement": "denaturant midpoint (higher = more stable)", "setting": "pH 7, Emission, phosphate", "result": 1.6, "unit": "M"},
      {"measurement": "Tm", "setting": "pH 7, Absorbance, Phosphate", "result": 70, "unit": "°C"},
      {"measurement": "denaturant midpoint (higher = more stable)", "setting": "pH 10, Absorbance, Glycine-OH", "result": "3 M and 1.5 M"},
      {"measurement": "denaturant midpoint (higher = more stable)", "setting": "pH 10, CD, Glycine-OH", "result": 1.6, "unit": "M"},
      {"measurement": "denaturant midpoint (higher = more stable)", "setting": "pH 10, Emission, Glycine-OH", "result": 1.6, "unit": "M"},
      {"measurement": "Tm", "setting": "pH 10, Absorbance, Glycine-OH", "result": 53, "unit": "°C"}
    ]}
  ]
}
